Substrate in series [1]: CC(=O)N[C@@H](C)C(=O)NCC(=O)N[C@@H](CCCNC(=N)N)C(=O)N[C@@H](CCCNC(=N)N)C(=O)N[C@@H](Cc1ccc(O)cc1)C(=O)N[C@@H](CO)C(=O)N[C@@H](CC(C)C)C(=O)N[C@@H](CSCc1ccc2c(S(=O)(=O)N(C)C)ccc(O)c2n1)C(=O)N[C@H](C)C(=O)N[C@@H](C)C(N)=O
In words: (§1) Activity of Aurora A.

Substrate in series [2]: CC(=O)N[C@@H](C)C(=O)N[C@@H](CC(C)C)C(=O)N[C@@H](CCCNC(=N)N)C(=O)N[C@@H](CCCNC(=N)N)C(=O)N[C@@H](C)C(=O)N[C@@H](CO)C(=O)N[C@@H](CC(C)C)C(=O)N[C@@H](CSCc1ccc2c(S(=O)(=O)N(C)C)ccc(O)c2n1)C(=O)N[C@@H](C)C(=O)N[C@@H](C)C(N)=O
Described as §1.

Substrate in series [3]: CC(=O)N[C@@H](C)C(=O)N[C@@H](CC(C)C)C(=O)N[C@@H](CCCNC(=N)N)C(=O)N[C@@H](CCCNC(=N)N)C(=O)N[C@@H](Cc1ccccc1)C(=O)N[C@@H](CO)C(=O)N[C@@H](CC(C)C)C(=O)N[C@@H](CSCc1ccc2c(S(=O)(=O)N(C)C)ccc(O)c2n1)C(=O)N[C@@H](C)C(=O)N[C@@H](C)C(N)=O
The description is as §1.

Substrate in series [4]: CC(=O)N[C@@H](C)C(=O)N[C@@H](CC(C)C)C(=O)N[C@@H](CCCNC(=N)N)C(=O)N[C@@H](CCCNC(=N)N)C(=O)N[C@@H](Cc1ccccc1)C(=O)N[C@@H](CO)C(=O)N[C@@H](CC(C)C)C(=O)N[C@@H](CSCc1ccc2c(S(=O)(=O)N(C)C)ccc(O)c2n1)C(=O)NCC(=O)N[C@@H](C)C(N)=O
Described as §1.

Substrate in series [5]: CC(=O)N[C@@H](C)C(=O)NCC(=O)N[C@@H](CCCNC(=N)N)C(=O)N[C@@H](CCCNC(=N)N)C(=O)N[C@@H](Cc1ccc(O)cc1)C(=O)N[C@@H](CO)C(=O)N[C@@H](CC(C)C)C(=O)N[C@@H](CSCc1ccc2c(S(=O)(=O)N(C)C)ccc(O)c2n1)C(=O)N[C@H](C)C(=O)N[C@@H](C)C(N)=O
In words: (§2) Ratio of Kcat to Km for Aurora A.

Substrate in series [6]: CC(=O)N[C@@H](C)C(=O)N[C@@H](CC(C)C)C(=O)N[C@@H](CCCNC(=N)N)C(=O)N[C@@H](CCCNC(=N)N)C(=O)N[C@@H](C)C(=O)N[C@@H](CO)C(=O)N[C@@H](CC(C)C)C(=O)N[C@@H](CSCc1ccc2c(S(=O)(=O)N(C)C)ccc(O)c2n1)C(=O)N[C@@H](C)C(=O)N[C@@H](C)C(N)=O
The description is as §2.

Substrate in series [7]: CC(=O)N[C@@H](C)C(=O)N[C@@H](CC(C)C)C(=O)N[C@@H](CCCNC(=N)N)C(=O)N[C@@H](CCCNC(=N)N)C(=O)N[C@@H](Cc1ccccc1)C(=O)N[C@@H](CO)C(=O)N[C@@H](CC(C)C)C(=O)N[C@@H](CSCc1ccc2c(S(=O)(=O)N(C)C)ccc(O)c2n1)C(=O)N[C@@H](C)C(=O)N[C@@H](C)C(N)=O
Described as §2.

Substrate in series [8]: CC(=O)N[C@@H](C)C(=O)N[C@@H](CC(C)C)C(=O)N[C@@H](CCCNC(=N)N)C(=O)N[C@@H](CCCNC(=N)N)C(=O)N[C@@H](Cc1ccccc1)C(=O)N[C@@H](CO)C(=O)N[C@@H](CC(C)C)C(=O)N[C@@H](CSCc1ccc2c(S(=O)(=O)N(C)C)ccc(O)c2n1)C(=O)NCC(=O)N[C@@H](C)C(N)=O
Described as §2.

Drawing on ChEMBL document CHEMBL1152693, “A rapid method for generation of selective Sox-based chemosensors of Ser/Thr kinases using combinatorial peptide libraries” (Bioorg Med Chem Lett, 2009), this text covers Km, Vmax and kcat/Km for one protein.

B1: Aurora kinase A (Homo sapiens), O14965 (protein)
chain: MDRSKENCISGPVKATAPVGGPKRVLVTQQFPCQNPLPVNSGQAQRVLCPSNSSQRIPLQAQKLVSSHKPVQNQKQKQLQATSVPHPVSRPLNNTQKSKQPLPSAPENNPEEELASKQKNEESKKRQWALEDFEIGRPLGKGKFGNVYLAREKQSKFILALKVLFKAQLEKAGVEHQLRREVEIQSHLRHPNILRLYGYFHDATRVYLILEYAPLGTVYRELQKLSKFDEQRTATYITELANALSYCHSKRVIHRDIKPENLLLGSAGELKIADFGWSVHAPSSRRTTLCGTLDYLPPEMIEGRMHDEKVDLWSLGVLCYEFLVGKPPFEANTYQETYKRISRVEFTFPDFVTEGARDLISRLLKHNPSQRPMLREVLEHPWITANSSKPSNCQNKESASKQS
The Km is the concentration of substrate that gives half-maximal velocity. One may read the Vmax as the rate approached at saturating substrate. The term kcat/Km denotes the turnover number divided by the Michaelis constant. Regarding B1, the Km in series [1] came to 65 µM; in series [2] it was 298 µM; in series [3], 152 µM; in series [4], 57.1 µM. The Vmax in series [1] stood at 1.8 µmol/min/mg; in series [2] it was 1.7 µmol/min/mg; in series [3], 2.6 µmol/min/mg; in series [4] it was 2.2 µmol/min/mg. Moreover, the kcat/Km stood at 83300 M⁻¹ s⁻¹ in series [5], 16700 M⁻¹ s⁻¹ in series [6], 50000 M⁻¹ s⁻¹ in series [7] and 117000 M⁻¹ s⁻¹ in series [8].
